For one test, the target named is DTX3L D1 domain (human). The experiment in a line: cross-linking.
For the next test, the target named is DTX3L D2 domain (human). As to the kind of experiment: cross-linking.

One may read the stoichiometry N as a count of units in the complex or per binding partner. Consider DTX3L D1 domain (domain or fragment), for which, in the test with DTX3L D1 domain (human), the stoichiometry N stood at 2.
DTX3L D2 domain (domain or fragment) displayed a stoichiometry N with DTX3L D2 domain (human) of 4.

(Values after publication doi:10.1101/2021.06.14.448324.)
